Results reported in patent US20240417469A1 (CONCEPT TO MEDICINE BIOTECH, published 2024).
Where “and” joins values, the source holds several entries; their conditions need not be identical. Identical values can stand only once. Like-named read-outs stand apart in the source and are kept apart here.

B1: SP34 monoclonal antibody (antibody, human IgG1, lambda, N297A, V domains shown)
VH: EVQLVESGGGLVQPKGSLKLSCAASGFTFNTYAMNWVRQAPGKGLEWVARIRSKYNNYATYYADSVKDRFTISRDDSQSILYLQMNNLKTEDTAMYYCVRHGNFGNSYVSWFAYWGQGTLVTVSA
VL: QAVVTQESALTTSPGETVTLTCRSSTGAVTTSNYANWVQEKPDHLFTGLIGGTNKRAPGVPARFSGSLIGDKAALTITGAQTEDEAIYFCALWYSNLWVFGGGTKLTVLG
notes: also called SP34 (Biointron, B6762)
B2: 192A7B9 chimeric mAb (antibody, V domains shown)
VH: QVQLKESGPGLVQPSQTLSLNCTVSGFSLTSYNVHWVRQPPGKGLEWMGRMRYNGDTSYNSALKSRLSISRDTSKNQVFLKMNSLQTDDTGTYYCTRGPRGGYYSALFDYWGQGVMVTVSS
VL: DIQMTQSPSFLSASVGDRVTINCKASQNINRYLNWYQQKLGDAPKVLISIANSLQTGIPSRFSGSGSGTDFTLTISSLQPEDVATYFCLQHNSWYTFGAGTKLELK
notes: Chimeric mAb
B3: 155A9B1 chimeric mAb (antibody, V domains shown)
VH: QVQLKESGPGLVQPSQTLSLTCTVSGFSLTSYNVHWVRQPPGKGLEWMGRVRYNGDTSYNSALKSRLSISRDTSKNQAFLKMNSLQIDDTGTYYCTRGPYGGSSEPLFDYWGQGVMVTVSS
VL: DIKMTQSPSFLSASVGDRVTINCKASQNINKYLNWFQQKLGEAPRLLIYTTNNLQTGIPSRFSGSGSGTDFTLTISSLQPEDVATYFCLQHNSGYTFGAGTKLELK
notes: Chimeric mAb
B4: 153A6B1 chimeric mAb (antibody, V domains shown)
VH: QVQLKESGPGLVQPSQTLSLTCTVSGFSLTSYNIHWVRQPPGKGLEWMGRIRYNGDTSYNSALKSRLSISRDTSKNQVFLKMSSLQTDDTGTYYCTRGPYGGSREPLFDYWGQGVMVTVSS
VL: DIKMTQSPSFLSAAVGDRVTINCKTSQNINKYLNWFQQKLGAAPKLLIYTTNNLQTGIPSRFSGSGSGTDFTLTISSLQPEDVATYFCLQHGSGYTFGAGTKLELK
notes: Chimeric mAb of the hybridoma clone; also called 153A6B1C8
B5: Hu155A9B1-3 (antibody, V domains shown)
VH: EVQLQESGPGLVKPSETLSLTCTVSGGSISSYNVHWVRQPPGKGLEWMGRVRYNGDTSYNSALKSRLTISRDTSKNQFSLKLSSVTAADTAVYYCARGPYGGSSEPLFDYWGQGTMVTVSS
VL: DIQMTQSPSSLSASVGDRVTITCKASQNINKYLNWYQQKPGKAPRLLIYTTNNLQTGVPSRFSGSGSGTDFTLTISSLQPEDFATYYCLQHNSGYTFGQGTKLEIK
notes: humanized mAb
B6: Hu155A9B1-6 (antibody, V domains shown)
VH: EVQLQESGPGLVKPSETLSLTCTVSGFSLTSYNVHWVRQPPGKGLEWMGRVRYNGDTSYNSALKSRLTISRDTSKNQASLKLSSVTAADTAVYYCTRGPYGGSSEPLFDYWGQGTMVTVSS
VL: DIQMTQSPSSLSASVGDRVTITCKASQNINKYLNWYQQKPGKAPRLLIYTTNNLQTGVPSRFSGSGSGTDFTLTISSLQPEDFATYYCLQHNSGYTFGQGTKLEIK
notes: humanized mAb

Key:
[1] = target: T1, recombinant CD3D&E protein (human CD3-his tag) (human, UniProt P04234 22-105; P07766 23-126, limits assumed); assay: SPR Biacore, Ab captured on Protein A
T1 construct: Analyte in Biacore; also called CD3D&E-His; CD3d&ε-His

[2] = target: T2, human CD3 on cells (human PBMC; Jurkat TCR/CD3 NFAT reporter cells) (human, UniProt P07766 23-207; P04234 22-171; P09693 23-182); assay: cell-based or functional assay
human CD3 protein [3] = target: T3, human CD3 protein (human, UniProt P07766 23-126; P04234 22-105); assay: ELISA, plate-coated CD3
T3 construct: ELISA coating protein; also called Human CD3D & CD3E Heterodimer Protein

cynomolgus CD3 protein = target: T4, cynomolgus CD3 protein (cynomolgus); assay: ELISA, plate-coated CD3
T4 construct: ELISA coating protein

[4] = target: T5, cynomolgus CD3 on cynomolgus PBMC (cynomolgus, UniProt Q95LI5 22-198; Q95LI8 22-171; Q95LI7 23-181); assay: FACS on cynomolgus PBMC, PE anti-human IgG Fc secondary, geometric mean fluorescence
T5 construct: whole, on cells; Native CD3 complex on cynomolgus T cells; also called cyno PBMC; cynoPBMCs

[5] = target: T2, human CD3 on cells (human PBMC; Jurkat …); assay: FACS on human PBMC, PE anti-human IgG Fc secondary, geometric mean fluorescence
human CD3 protein [6] = target: T3, human CD3 protein; assay: ELISA, plate-coated CD3; remark: listed apart in the source
[7] = target: T1, recombinant CD3D&E protein (human …); assay: SPR Biacore, Ab captured on Protein A; remark: listed apart in the source
[8] = target: T2, human CD3 on cells (human PBMC; Jurkat …); assay: cell-based or functional assay; remark: listed apart in the source
Wherever Emax is given: unit not given here.

T1 sequence (P04234 22-105 limits assumed, chain 1 of 2): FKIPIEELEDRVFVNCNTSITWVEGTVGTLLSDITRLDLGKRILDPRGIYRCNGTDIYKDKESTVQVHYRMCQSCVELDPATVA
T1 sequence (P07766 23-126 limits assumed, chain 2 of 2): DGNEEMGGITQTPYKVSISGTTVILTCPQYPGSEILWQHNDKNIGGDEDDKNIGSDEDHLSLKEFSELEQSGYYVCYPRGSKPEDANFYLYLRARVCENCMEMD
T4 sequence (Q95LI5 22-117, chain 1 of 2): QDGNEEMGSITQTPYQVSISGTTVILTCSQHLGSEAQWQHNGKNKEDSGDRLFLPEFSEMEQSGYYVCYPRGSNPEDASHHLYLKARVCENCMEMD
T4 sequence (Q95LI8 22-105, chain 2 of 2, further chain): as the sequence (P04234 22-105 limits assumed, chain 1 of 2) above, with I5V, N15K, I20V, S32T, D33N, I34N, T64A, S74N, V83L counted along it
T2 sequence (P07766 23-207, chain 1 of 3): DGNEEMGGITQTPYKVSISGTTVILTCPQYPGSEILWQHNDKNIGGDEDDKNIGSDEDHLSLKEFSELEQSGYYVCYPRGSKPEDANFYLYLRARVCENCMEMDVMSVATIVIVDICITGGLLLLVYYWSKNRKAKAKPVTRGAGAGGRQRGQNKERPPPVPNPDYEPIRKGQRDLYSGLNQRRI
T2 sequence (P04234 22-171, chain 2 of 3): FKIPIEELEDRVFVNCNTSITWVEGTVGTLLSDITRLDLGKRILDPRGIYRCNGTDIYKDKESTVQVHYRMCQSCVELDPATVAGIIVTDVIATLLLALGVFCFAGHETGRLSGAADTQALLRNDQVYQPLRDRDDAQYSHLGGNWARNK
T2 sequence (P09693 23-182, chain 3 of 3): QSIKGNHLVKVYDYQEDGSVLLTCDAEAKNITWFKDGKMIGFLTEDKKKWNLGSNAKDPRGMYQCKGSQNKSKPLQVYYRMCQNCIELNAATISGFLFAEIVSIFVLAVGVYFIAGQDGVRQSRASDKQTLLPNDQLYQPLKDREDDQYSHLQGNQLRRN
T5 sequence (Q95LI5 22-198, chain 1 of 3): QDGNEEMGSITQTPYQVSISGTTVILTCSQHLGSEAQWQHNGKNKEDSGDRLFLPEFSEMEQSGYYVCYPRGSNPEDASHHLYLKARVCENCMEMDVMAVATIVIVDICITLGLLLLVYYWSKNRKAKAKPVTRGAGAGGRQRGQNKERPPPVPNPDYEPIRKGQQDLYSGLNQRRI
T5 sequence (Q95LI8 22-171, chain 2 of 3): as the sequence (P04234 22-171, chain 2 of 3) above, with I5V, N15K, I20V, S32T, D33N, I34N, T64A, S74N, V83L, H141R counted along it
T5 sequence (Q95LI7 23-181, chain 3 of 3): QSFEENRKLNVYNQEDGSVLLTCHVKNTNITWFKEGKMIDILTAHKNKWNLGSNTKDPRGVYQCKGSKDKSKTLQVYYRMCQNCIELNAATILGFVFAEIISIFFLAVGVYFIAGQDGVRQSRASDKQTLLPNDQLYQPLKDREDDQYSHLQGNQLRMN
T3 sequence (P07766 23-126 limits assumed, chain 1 of 2): as the sequence (P07766 23-126 limits assumed, chain 2 of 2) above
T3 sequence (P04234 22-105 limits assumed, chain 2 of 2): as the sequence (P04234 22-105 limits assumed, chain 1 of 2) above

Binder	Kd [1]	koff [1]	kon [1]	% of SP34 [2]	EC50 (human CD3 protein [3])	EC50 (cynomolgus CD3 protein)	binding result [4]	EC50 (read off the curve) [5]	EC50 (human CD3 protein [6])	Kd [7]	koff [7]	kon [7]	Emax [2]	CD3-NFAT Activity by CD3 mAb [8]
B1	6.89 nM	0.00292 s⁻¹	424000 M⁻¹ s⁻¹	100%	6.48 ng/mL	6.18 ng/mL	binds	~1 nM						
B2	6.34 nM	0.000442 s⁻¹	69700 M⁻¹ s⁻¹		1.91 ng/mL	2.16 ng/mL	binds		2.53 ng/mL and 2.85 ng/mL and 2.16 ng/mL and 2.3 ng/mL	6.34 nM	0.000442 s⁻¹	69700 M⁻¹ s⁻¹		
B3	36.1 nM	0.00207 s⁻¹	57200 M⁻¹ s⁻¹		2.15 ng/mL	2.33 ng/mL	binds		2.7 ng/mL and 2.54 ng/mL and 2.34 ng/mL	36.1 nM	0.00207 s⁻¹	57200 M⁻¹ s⁻¹		
B4	8.69 nM	0.000694 s⁻¹	79900 M⁻¹ s⁻¹		2.79 ng/mL	2.88 ng/mL	binds		3.42 ng/mL and 2.91 ng/mL and 2.74 ng/mL	8.69 nM	0.000694 s⁻¹	79900 M⁻¹ s⁻¹		
B5				12.8%					32.2 ng/mL	18 nM	0.00667 s⁻¹	370000 M⁻¹ s⁻¹	648	≤ 50 % SP34
B6				84.8%					4.16 ng/mL	62.1 nM	0.00593 s⁻¹	95400 M⁻¹ s⁻¹	4300	> 50 % SP34
